Reference: paper PMC9232537

Target: 6xHis-N-WASP (UniProt O00401)
Sequence of UniProt O00401 (O00401 whole entry): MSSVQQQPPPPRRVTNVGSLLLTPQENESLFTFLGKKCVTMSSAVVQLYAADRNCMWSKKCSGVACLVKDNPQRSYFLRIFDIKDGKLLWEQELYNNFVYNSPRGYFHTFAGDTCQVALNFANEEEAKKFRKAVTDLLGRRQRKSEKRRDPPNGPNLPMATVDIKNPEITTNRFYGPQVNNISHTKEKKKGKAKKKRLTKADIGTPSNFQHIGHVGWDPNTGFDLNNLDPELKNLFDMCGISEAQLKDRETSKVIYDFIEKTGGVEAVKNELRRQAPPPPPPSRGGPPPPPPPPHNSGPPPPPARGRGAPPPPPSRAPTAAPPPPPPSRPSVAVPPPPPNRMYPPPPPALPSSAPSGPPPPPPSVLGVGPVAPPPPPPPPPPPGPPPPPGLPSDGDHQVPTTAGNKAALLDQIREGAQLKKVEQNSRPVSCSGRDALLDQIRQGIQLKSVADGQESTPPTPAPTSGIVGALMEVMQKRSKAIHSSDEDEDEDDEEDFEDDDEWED

purified native MirA (natural protein)
pyrene actin (1 µM, 10% labeled) polymerization with Arp2/3 complex (50 nM), N-WASP (200 nM) and increasing MirA; MirA concentration for half-maximum activity (time to half-maximum fluorescence): 60 nM
